Test results taken from publication PMC11352241, “Detection of Hepatocellular Carcinoma in an Orthotopic Patient-Derived Xenograft with an Epithelial Cell Adhesion Molecule-Specific Peptide” (Cancers, 2024).
Residues, ends and D or L forms follow the SMILES beside them. No end group written: not given here. *: point of attachment. X2 = CC1(C)C(=CC=C2CCCC(C=CC3=[N+](CCCCS(=O)(=O)[O-])c4ccc(S(=O)(=O)O)cc4C3(C)C)=C2Oc2ccc(S(=O)(=O)O)cc2)N(CCCCCC(=O)NCCN2C(=O)CC(*)C2=O)c2ccc(S(=O)(=O)O)cc21; IRDye800 = IRDye800 near-infrared fluorophore

Legend:
tumors = conditions: ICG, EPR effect; cited from earlier work
Description: An IRDye800-labeled chimeric monoclonal antibody 323/A3 was used to detect a broad range of tumors found clinically. Cell-derived xenograft colon, breast, head and neck, and peritoneal carcinomatosis tumors were implanted orthotopically. Tumor nodules with millimeter dimensions were detected with NIR fluorescence imaging that were not otherwise visible. […] Also, a 7-mer peptide YQ-S2 was labeled with the NIR fluorophore MPA [36]. The peptide was character ... || Image-guided surgery aims to remove all cancerous tissues, and thus requires an effective strategy to discriminate tumor cells from non-tumor cells. NIR fluorescence imaging can be used as an adjunct to conventional laparoscopy to assist the surgeon to identify small and missed lesions. The spectra of white light illumination and IRDye800 fluorescence are sufficiently separated so that both modalities can be used concurrently during surgery. ICG is FDA-approved, and this contrast agent is currently being used clinically to identify HCC in real time. The non-specific NIR dye gathers in t ...

[1] = tested on: human HCC patient-derived xenograft (PDX) tumors; experiment: In vivo whole-body NIR fluorescence imaging, orthotopic HCC PDX
Procedure: Orthotopic HCC mice were used for imaging ~3–4 weeks post-implantation.
IRDye800-labeled target and control peptides (300 μM, 200 μL PBS), unlabeled target peptide (block, 1.5 mM, 100 μL), and ICG (2.46 mg/kg) were injected in tumor-bearing animals using the tail vein. Unlabeled target peptide was injected 30 min prior to the IRDye800-labeled target peptide to compete for binding. The Pearl Trilogy (LI-COR Biosciences) was used to collect whole-body NIR fluorescence images over a time frame of 24 h post-injection.

EpCAM [2] = target: T1, EpCAM (Homo sapiens, UniProt P16422); experiment: Binding competition with unlabeled peptide on Hep3B cells; assay type: cell-based; conditions: confocal microscopy
T1 construct: endogenous in cells; host or cells: Hep3B human hepatocellular carcinoma cells
T1 sequence (P16422 24-314): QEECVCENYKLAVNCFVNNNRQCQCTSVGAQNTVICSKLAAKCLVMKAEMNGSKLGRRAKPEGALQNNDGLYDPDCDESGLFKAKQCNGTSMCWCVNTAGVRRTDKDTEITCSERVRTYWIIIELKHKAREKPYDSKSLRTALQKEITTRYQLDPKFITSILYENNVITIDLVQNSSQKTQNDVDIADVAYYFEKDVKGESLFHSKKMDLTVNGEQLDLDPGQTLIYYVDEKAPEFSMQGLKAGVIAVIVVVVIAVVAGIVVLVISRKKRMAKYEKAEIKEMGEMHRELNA
Procedure: Unlabeled target and control peptide was added to IRDye800-labeled target peptides to compete for binding to EpCAM. Inverted confocal microscopy (Leica, Wetzlar, Germany, Stellaris 5) was used to acquire the NIR fluorescence images, and intensities were measured with custom MATLAB (Mathworks) software (Matlab version R2023a).

Serum stability = assay type: in vitro ADME; conditions: 30 μM IRDye800-labeled peptide in mouse serum, 37 °C, 0, 0.5, 1.0, 1.5, 2, 3, 4 and 24 h, analytical RP-HPLC area under the peak; R^2 = 0.99; n = 6 mice in each group; read-out: half-life T1/2 in mouse serum (converted)
Procedure: IRDye800-labeled target peptide measuring 30 μM was incubated with mouse serum at time intervals ranging up to 24 h at 37 °C, and was monitored by analytical RP-HPLC. The relative peptide concentrations were determined by measuring the area under the peak (Waters, Breeze 2).

[3] = Peptide biodistribution in harvested organs; assay type: in vivo, mouse; conditions: organs harvested 1.5 h post-injection, NIR fluorescence
Procedure: PDX-implanted mouse livers were exposed by making a small (1–2 cm) incision in the abdomen below the sternum. A custom laparoscope that collects white light and fluorescence images (λex = 785 nm) concurrently were used to image the liver region at 1.5 h post-injection via the tail vein [34]. IRDye800-labeled peptides, unlabeled peptide, and ICG were administrated as described above. Once imaging was completed, major organs, including the heart, spleen, lung, liver, brain, stomach, kidney, and intestine, were collected and imaged with white light and fluorescence to evaluate peptide biodistribution.

[4] = Animal necropsy for acute toxicity; assay type: in vivo, mouse; conditions: healthy mice, 48 h post-injection, 300 μM, 200 μL PBS; heart, liver, spleen, lung, kidney, stomach, intestine, brain
Procedure: Healthy mice were euthanized at 48 h post-injection with the IRDye800-labeled target peptide (300 μM, 200 μL PBS). Major organs, including liver, kidney, heart, lung, spleen, stomach, intestine, and brain, were resected and submitted for pathological evaluation to assess for acute toxicity.

EpCAM [5] = conditions: read-out: binding affinity kd; cited from earlier work
Description: An IRDye800-labeled chimeric monoclonal antibody 323/A3 was used to detect a broad range of tumors found clinically. Cell-derived xenograft colon, breast, head and neck, and peritoneal carcinomatosis tumors were implanted orthotopically. Tumor nodules with millimeter dimensions were detected with NIR fluorescence imaging that were not otherwise visible. […] Also, a 7-mer peptide YQ-S2 was labeled with the NIR fluorophore MPA [36]. The peptide was character ...

HPD*-IRDye800 = target: T2, HPD*-IRDye800; experiment: Hep3B cell binding
T2 chain: HPDMFTRTHSHNGGGSC-IRDye800

CC1(C)C(/C=C/C=C/C=C/C=C2\N(CCCCS(=O)(=O)O)c3ccc4ccccc4c3C2(C)C)=[N+](CCCCS(=O)(=O)[O-])c2ccc3ccccc3c21 [ICG, indocyanine green, reference compound]
time of maximum tumor absorption post-injection (tumors): > 48 h
T/B ratio at peak uptake ([1]; whole-body imaging, 1.5 h post-injection, tail vein, labeled peptides 300 μM, 200 μL, block = unlabeled HPD* before HPD*-IRDye800, ICG 2.46 mg/kg, mean ± SD, n = 6): 1.26 ± 0.05

HPDMFTRTHSHN [HPD*, unlabeled 12-mer EpCAM target peptide …]
effect of unlabeled peptide on HPD*-IRDye800 fluorescence intensity (EpCAM [2]): decrease significantly

CSCC[C@H](NC(=O)[C@H](CC(=O)O)NC(=O)[C@@H]1CCCN1C(=O)[C@@H](N)Cc1c[nH]cn1)C(=O)N[C@@H](Cc1ccccc1)C(=O)N[C@H](C(=O)N[C@@H](CCCNC(=N)N)C(=O)N[C@H](C(=O)N[C@@H](Cc1c[nH]cn1)C(=O)N[C@@H](CO)C(=O)N[C@@H](Cc1c[nH]cn1)C(=O)N[C@@H](CC(N)=O)C(=O)NCC(=O)NCC(=O)NCC(=O)N[C@@H](CO)C(=O)N[C@@H](CSC1CC(=O)N(CCNC(=O)CCCCCN2C(=CC=C3CCCC(C=CC4=[N+](CCCCS(=O)(=O)[O-])c5ccc(S(=O)(=O)O)cc5C4(C)C)=C3Oc3ccc(S(=O)(=O)O)cc3)C(C)(C)c3cc(S(=O)(=O)O)ccc32)C1=O)C(N)=O)[C@@H](C)O)[C@@H](C)O (some centres unmarked) [HPD*-IRDye800] (H-HPDMFTRTHSHNGGGSC(X2)-NH2)
half-life at 30 μM (Serum stability): 2.6 h
uptake in kidney [3]: High uptake
acute toxicity on histopathology of major organs [4]: No signs of acute peptide toxicity
time of return of intensity to baseline ([1]; whole-body fluorescence images post-injection): ~ 24 h
time of peak uptake by HCC tumor post-injection ([1]; whole-body fluorescence, 300 μM, 200 μL PBS, tail vein, orthotopic HCC PDX in NSG mice, n = 6): 1.5 h

SNFYMPL [7-mer EpCAM peptide used to label a pH-sensitive polymeric micelle encapsulating paclitaxel]
Kd (EpCAM [5]): 164 nM

PFHDMHSNHTRT [PFH*, unlabeled scrambled control peptide …]
effect of unlabeled peptide on HPD*-IRDye800 fluorescence intensity (EpCAM [2]): did not show an intensity reduction

B1: EpCAM (protein)
chain: QEECVCENYKLAVNCFVNNNRQCQCTSVGAQNTVICSKLAAKCLVMKAEMNGSKLGRRAKPEGALQNNDGLYDPDCDESGLFKAKQCNGTSMCWCVNTAGVRRTDKDTEITCSERVRTYWIIIELKHKAREKPYDSKSLRTALQKEITTRYQLDPKFITSILYENNVITIDLVQNSSQKTQNDVDIADVAYYFEKDVKGESLFHSKKMDLTVNGEQLDLDPGQTLIYYVDEKAPEFSMQGLK
Kd (HPD*-IRDye800): 67 nM
